The supplement of paper PMC7125110
± gives the standard error. For some assays here: Fewer inactive variants are shown than the library holds.

B1: glmS ribozyme (parent)
chain: AUAAAAGCGCCAGAACUACAGAAAUGUAGUUGACGAGGAGGAGGUUUAUCGAAUUUUCGGCGGAUGCCUCCAAA

Legend:
Conditions in all cases: with glucosamine-6-phosphate
glucosamine-6-phosphate [1] = variants of: B1; experiment: kcat; higher = faster cleavage; RNA array
Method in brief: (§1)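 Using a hybridised Cy3 probe at 37 °C, barcoded ribozyme variants transcribed in situ by E. coli RNA polymerase on sequenced MiSeq chips were monitored across tiles imaged over ~14 h. The flow contained glucosamine-6-phosphate from 40 μM to 10 mM in HEPES/KCl/Mg(OAc)2 buffer. Signals were normalised to baseline and to non-cleaving reference variants before per-tile medians were fit to one- or two-exponential decays to yield kobs. Weighted Michaelis–Menten fits across concentrations gave kcat and KM.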

glucosamine-6-phosphate [2] = variants of: B1; experiment: self-cleavage kobs at 2500 uM GlcN6P; higher = faster cleavage; RNA array
Method in brief: as §1

glucosamine-6-phosphate [3] = variants of: B1; experiment: self-cleavage kobs at 10000 uM GlcN6P; higher = faster cleavage; RNA array
Method in brief: as §1

glucosamine-6-phosphate [4] = variants of: B1; experiment: self-cleavage kobs at 40 uM GlcN6P; higher = faster cleavage; RNA array
Method in brief: as §1

glucosamine-6-phosphate [5] = variants of: B1; experiment: self-cleavage kobs at 160 uM GlcN6P; higher = faster cleavage; RNA array
Method in brief: as §1

glucosamine-6-phosphate [6] = variants of: B1; experiment: self-cleavage kobs at 640 uM GlcN6P; higher = faster cleavage; RNA array
Method in brief: as §1

glucosamine-6-phosphate [7] = variants of: B1; experiment: KM; higher = weaker cofactor use; RNA array
Method in brief: as §1

In the case of AUAAAUGCGCCCGAACUACAGAAAUGUAGUUGACGAGGAGGAGGUUUAUCGAAUUUUCGGCGGAUGCCUCCAAA [A6U A12C], the kcat (glucosamine-6-phosphate [1]) is reported as 0.000271 ± 9.3e-05 s⁻¹, the “self-cleavage kobs at 2500 uM GlcN6P” value (glucosamine-6-phosphate [2]) is reported as 0.000111 ± 3.2e-05 s⁻¹ and the “self-cleavage kobs at 10000 uM GlcN6P” value (glucosamine-6-phosphate [3]) is reported as 0.000168 ± 2.9e-05 s⁻¹.

AUAAAAGCGCCAGGACUACAGAAAUGUAGUUGACGAGGAGGAGGUUUAUCGAAUUUUCGGCGGAUGCCUCUAAA [A14G C71U] was tested, and the kcat (glucosamine-6-phosphate [1]) was 0.133 ± 0.062 s⁻¹, the “self-cleavage kobs at 40 uM GlcN6P” value (glucosamine-6-phosphate [4]) was 0.0019 ± 0.00017 s⁻¹ and the “self-cleavage kobs at 160 uM GlcN6P” value (glucosamine-6-phosphate [5]) was 0.00542 ± 0.00067 s⁻¹. The “self-cleavage kobs at 640 uM GlcN6P” value (glucosamine-6-phosphate [6]) was 0.0171 ± 0.0027 s⁻¹, the “self-cleavage kobs at 2500 uM GlcN6P” value (glucosamine-6-phosphate [2]) was 0.0711 ± 0.027 s⁻¹ and the “self-cleavage kobs at 10000 uM GlcN6P” value (glucosamine-6-phosphate [3]) was 0.112 ± 0.022 s⁻¹.

For AUAAAAGCGCCAGAACUACAGAAAUGUAGUUGACGAGGAGGAGGUUUAGCGAAUUGUCGGCGGAUGCCUCCAAA [U49G U56G], the kcat (glucosamine-6-phosphate [1]) was 0.000717 ± 1.9e-05 s⁻¹, the KM (glucosamine-6-phosphate [7]) was 4.76 ± 0.21 mM and the “self-cleavage kobs at 640 uM GlcN6P” value (glucosamine-6-phosphate [6]) was 8.38e-05 ± 1.5e-05 s⁻¹. The “self-cleavage kobs at 2500 uM GlcN6P” value (glucosamine-6-phosphate [2]) was 0.000254 ± 4.7e-05 s⁻¹ and the “self-cleavage kobs at 10000 uM GlcN6P” value (glucosamine-6-phosphate [3]) was 0.000484 ± 5.8e-05 s⁻¹.

AUAAAAGCGCCAUAACUACAGAAAUGUAGUUGACGAGGAGGAGGUUUAUCGAAUCUUCGGCGGAUGCCUCCAAA [G13U U55C] was tested, and the kcat (glucosamine-6-phosphate [1]) was 0.000878 ± 0.00013 s⁻¹, the KM (glucosamine-6-phosphate [7]) was 3.97 ± 1.2 mM and the “self-cleavage kobs at 160 uM GlcN6P” value (glucosamine-6-phosphate [5]) was 2.79e-05 ± 1.3e-05 s⁻¹. For the same variant, the “self-cleavage kobs at 640 uM GlcN6P” value (glucosamine-6-phosphate [6]) was 0.000149 ± 3.4e-05 s⁻¹, the “self-cleavage kobs at 2500 uM GlcN6P” value (glucosamine-6-phosphate [2]) was 0.000304 ± 5.4e-05 s⁻¹ and the “self-cleavage kobs at 10000 uM GlcN6P” value (glucosamine-6-phosphate [3]) was 0.000642 ± 7e-05 s⁻¹.

With AUAAAAGCGCCAGAACUACAGAAAUGUAGUUGACGAGGCGGAGCUUUAUCGAAUUUUCGGCGGAUGCCUCCAAA [A39C G44C] the kcat (glucosamine-6-phosphate [1]) was 1.03e-05 ± 1.3e-06 s⁻¹, the KM (glucosamine-6-phosphate [7]) was 3.63 ± 1.2 mM and the “self-cleavage kobs at 160 uM GlcN6P” value (glucosamine-6-phosphate [5]) was under 1e-05 s⁻¹.

AUAAAAGCGCCAGAACUACAGAAAUGUACUUGACGAGGAGGAGGUUUAUUGAAUUUUCGGCGGAUGCCUCCAAA [G29C C50U] was tested, and the kcat (glucosamine-6-phosphate [1]) was under 1e-05 s⁻¹ and the “self-cleavage kobs at 160 uM GlcN6P” value (glucosamine-6-phosphate [5]) was under 1e-05 s⁻¹.

Variant AUAAACGCGCCAGAACUACAGAAAUGUAGUUGACGAGGAGGAGGUUUAUGGAAUUUUCGGCGGAUGCCUCCAAA [A6C C50G] has a kcat (glucosamine-6-phosphate [1]) of 2.11e-05 ± 7.4e-06 s⁻¹.

With AUAAAAGCGCCAGAACUACAGAAAUGUAGUUGACGAGGAGGAGGUUUCUCGAGUUUUCGGCGGAUGCCUCCAAA [A48C A53G] the kcat (glucosamine-6-phosphate [1]) was 0.000334 ± 1.5e-05 s⁻¹, the KM (glucosamine-6-phosphate [7]) was 2.13 ± 0.19 mM and the “self-cleavage kobs at 640 uM GlcN6P” value (glucosamine-6-phosphate [6]) was 7.49e-05 ± 1.2e-05 s⁻¹. The “self-cleavage kobs at 2500 uM GlcN6P” value (glucosamine-6-phosphate [2]) was 0.000187 ± 2.9e-05 s⁻¹ and the “self-cleavage kobs at 10000 uM GlcN6P” value (glucosamine-6-phosphate [3]) was 0.000272 ± 3.6e-05 s⁻¹.

With AUAAAAGCGCUAGAACUACAGAAAUGUAGUUGACGAGGAGGAGGUUUAUCGAAUUUUCGGCGGGUGCCUCCAAA [C11U A64G] the kcat (glucosamine-6-phosphate [1]) was 0.00227 ± 0.00061 s⁻¹, the KM (glucosamine-6-phosphate [7]) was 1.37 ± 0.58 mM and the “self-cleavage kobs at 40 uM GlcN6P” value (glucosamine-6-phosphate [4]) was 8.94e-05 ± 9.3e-06 s⁻¹. The “self-cleavage kobs at 160 uM GlcN6P” value (glucosamine-6-phosphate [5]) was 0.0002 ± 2.5e-05 s⁻¹, the “self-cleavage kobs at 640 uM GlcN6P” value (glucosamine-6-phosphate [6]) was 0.000741 ± 6.4e-05 s⁻¹ and the “self-cleavage kobs at 2500 uM GlcN6P” value (glucosamine-6-phosphate [2]) was 0.00108 ± 0.00014 s⁻¹. For the same variant, the “self-cleavage kobs at 10000 uM GlcN6P” value (glucosamine-6-phosphate [3]) was 0.00247 ± 0.00021 s⁻¹.

With AUAAAAGCGCCAGAAUUACAGAAAUGUAGUUGACGAGGAGGAGGUUUAUCGAAUUUUCAGCGGAUGCCUCCAAA [C16U G59A] the kcat (glucosamine-6-phosphate [1]) was 6.33e-05 ± 4e-06 s⁻¹, the KM (glucosamine-6-phosphate [7]) was 1.18 ± 0.39 mM and the “self-cleavage kobs at 2500 uM GlcN6P” value (glucosamine-6-phosphate [2]) was 4.86e-05 ± 1.2e-05 s⁻¹. For the same variant, the “self-cleavage kobs at 10000 uM GlcN6P” value (glucosamine-6-phosphate [3]) was 5.59e-05 ± 6.3e-06 s⁻¹.

For AUAAAAGCGCCAGAACUACAGAAAUGUAGUUGACGAAGAGGAGGUUUAUCGAAUUUUCGGCGGAUGCCUCCAAA [G37A], the kcat (glucosamine-6-phosphate [1]) was 0.00564 ± 0.001 s⁻¹, the KM (glucosamine-6-phosphate [7]) was 3.54 ± 0.83 mM and the “self-cleavage kobs at 40 uM GlcN6P” value (glucosamine-6-phosphate [4]) was 7.38e-05 ± 1.4e-06 s⁻¹. For the same variant, the “self-cleavage kobs at 160 uM GlcN6P” value (glucosamine-6-phosphate [5]) was 0.000198 ± 7.5e-06 s⁻¹, the “self-cleavage kobs at 640 uM GlcN6P” value (glucosamine-6-phosphate [6]) was 0.000777 ± 1.7e-05 s⁻¹ and the “self-cleavage kobs at 2500 uM GlcN6P” value (glucosamine-6-phosphate [2]) was 0.00255 ± 7.6e-05 s⁻¹. The “self-cleavage kobs at 10000 uM GlcN6P” value (glucosamine-6-phosphate [3]) was 0.00419 ± 8.2e-05 s⁻¹.

With AUAAAAGCGCCAGAACUACAGAAAUGUAGUUGACGAGGAUCAGGUUUAUCGAAUUUUCGGCGGAUGCCUCCAAA [G40U G41C] the kcat (glucosamine-6-phosphate [1]) was 9.58e-05 ± 2.6e-05 s⁻¹, the “self-cleavage kobs at 160 uM GlcN6P” value (glucosamine-6-phosphate [5]) was under 1e-05 s⁻¹ and the “self-cleavage kobs at 2500 uM GlcN6P” value (glucosamine-6-phosphate [2]) was 8.94e-05 ± 1.2e-05 s⁻¹. The “self-cleavage kobs at 10000 uM GlcN6P” value (glucosamine-6-phosphate [3]) was 7.67e-05 ± 1.2e-05 s⁻¹.

With AUAAAAGCGCCAGAACUACAGAAAUGUAGUUUACGAGGAGGAGGUUUAUCGAAUUUUCGGCGGAUGCCUACAAA [G32U C70A] the kcat (glucosamine-6-phosphate [1]) was 4.97e-05 ± 4.6e-06 s⁻¹, the “self-cleavage kobs at 640 uM GlcN6P” value (glucosamine-6-phosphate [6]) was 4.67e-05 ± 1.8e-05 s⁻¹ and the “self-cleavage kobs at 2500 uM GlcN6P” value (glucosamine-6-phosphate [2]) was 5.83e-05 ± 1.3e-05 s⁻¹. For the same variant, the “self-cleavage kobs at 10000 uM GlcN6P” value (glucosamine-6-phosphate [3]) was 4.67e-05 ± 6.5e-06 s⁻¹.

For AUAAAAGCGCCAGAACUACAGAAAUGUAGUUGACGAGGAGGAGGUUUAGUGAAUUUUCGGCGGUUGGCUACAAA [U49G C50U A64U C67G C70A], the kcat (glucosamine-6-phosphate [1]) was 3.56e-05 ± 1.6e-05 s⁻¹ and the “self-cleavage kobs at 640 uM GlcN6P” value (glucosamine-6-phosphate [6]) was 4.15e-05 ± 2e-05 s⁻¹.

For AUAAAAGCGCCAGAGCUACAGAAAUGUAGUUGACGAGGAGGGGGUUUAUCGAAUUUUCGGCGGAUGCCUCCAAA [A15G A42G], the kcat (glucosamine-6-phosphate [1]) was 0.132 ± 0.031 s⁻¹, the KM (glucosamine-6-phosphate [7]) was 3.78 ± 0.97 mM and the “self-cleavage kobs at 40 uM GlcN6P” value (glucosamine-6-phosphate [4]) was 0.00132 ± 0.00047 s⁻¹. The “self-cleavage kobs at 160 uM GlcN6P” value (glucosamine-6-phosphate [5]) was 0.00525 ± 0.0011 s⁻¹ and the “self-cleavage kobs at 640 uM GlcN6P” value (glucosamine-6-phosphate [6]) was 0.024 ± 0.0099 s⁻¹.

Variant AUAAACGCGCCAGCACUACAGAAAUGUAGUUGACGAGGAGGAGGUUUAUCGAAUUUUCGGCGGAUGCCUCCAAA [A6C A14C] has a kcat (glucosamine-6-phosphate [1]) of 1.13e-05 ± 5.2e-07 s⁻¹ and a KM (glucosamine-6-phosphate [7]) of 5.84 ± 0.6 mM.

For AUAAAAGCGCCAGAACUACAGAAAUGUAGUUGACGAGGAGGAGGUUUAUCGAACUCUCGGCGGAUGCCUCCAAA [U54C U56C], the kcat (glucosamine-6-phosphate [1]) was 0.0062 ± 0.0012 s⁻¹, the KM (glucosamine-6-phosphate [7]) was 4.05 ± 1 mM and the “self-cleavage kobs at 40 uM GlcN6P” value (glucosamine-6-phosphate [4]) was 7.75e-05 ± 1.4e-05 s⁻¹. The “self-cleavage kobs at 160 uM GlcN6P” value (glucosamine-6-phosphate [5]) was 0.000223 ± 3.3e-05 s⁻¹, the “self-cleavage kobs at 640 uM GlcN6P” value (glucosamine-6-phosphate [6]) was 0.00084 ± 0.00013 s⁻¹ and the “self-cleavage kobs at 2500 uM GlcN6P” value (glucosamine-6-phosphate [2]) was 0.002 ± 0.00042 s⁻¹. The “self-cleavage kobs at 10000 uM GlcN6P” value (glucosamine-6-phosphate [3]) was 0.00471 ± 0.00069 s⁻¹.

With AUAAAUGCGCCAGAACUACAGAAAUGUAGUUGACGAGGAGGAGGUUUAUCGAAUUUGCGGCGGAUGGCUCCAAA [A6U U57G C67G] the kcat (glucosamine-6-phosphate [1]) was 2.88e-05 ± 7.6e-06 s⁻¹.
